Experimental data taken from patent US20210047412A1.

Tests used:
canine PD-1 (canine) [1] = assay: ELISA, affinity for canine PD-1 (Table 2)
canine PD-1 (canine) [2] = assay: ELISA on plate-bound tagged canine PD-1, Kd by the Bobrovnik method
canine PD-1 (canine) [3] = assay: competition ELISA, blockade of canine PD-1/PD-L1 binding; competitor canine PD-L1
canine PD-1 (canine) [4] = assay: competition ELISA, inhibition of canine PD-1 binding to canine PD-L1; competitor canine PD-L1 (Table 2)
canine PD-1 (canine) [5] = assay: ELISA; footnote: predicted affinity, not quantitatively measured

Binder	Kd (canine PD-1 (canine) [1]) [nM]	Kd (canine PD-1 (canine) [2]) [nM]	IC50 (canine PD-1 (canine) [3]) [nM]	IC50 (canine PD-1 (canine) [4]) [nM]	Kd (canine PD-1 (canine) [5]) [nM]
NAN10 (4B4) (VHH) VHH: QVQLQASGGGLVQGGESLRLSCAASGRTVAEYTIGWYRQAPGKEREFVAGPSWHARGTSYLDSVKGRFTISRDNTKDTVYLQMNTLKPEDTAVYYCNADVNTDYSEYVEYWGQGTQVG	2.3	2.3	5.04	5.04	
NAN7/8 (5A5) (VHH) VHH: QVQLQASGGGLVEPGGSLRLSCAASGAIFRIAAMGWYRQAPGKERELVATITRGGSTNYADSVKGRFTISRDNAKNTAYLQMDSLKAEDTGVYYCNAGLWATTSANYWGQGTQVG	5.01	5.01	6.83	6.83	
NAN4 (5A1) (VHH) VHH: QVQLQASGGGLVQPGGSLTLSCAASGSIDSILAMGWYRQGPGKQREFVASISWSGDITYYADSAKGRFTISRDNAKNTVYLQMNSLKPEDTAVYYCNAGPDMQISGPTDDYDYWGQGTQVG	7	7	8.25	8.25	
NAN6 (VHH) VHH: QVQLQASGGGLVQPGGSLTLSCAASGSIDSILAMGWYRQGPGKQRELVATITSDGGSTNYAEYVKGRFTISRDDANNTACLQMDNLKPDDTAVYYCNAKGRRLSYGYWGQGTQVG					> 10
NAN9 (VHH) VHH: QVQLQASGGGLVQPGGSLRLSCATSGFTLDNLAIGWLRQAPGKEREGVSCISGSVGSTYYVDSVEGRFTISKDNAKNTVALQMDRLNPEDTAVYYCSAVGRERTHLPNWQYWGQGTQVG					> 10

The next lines start with the values.

Kd (canine PD-1 (canine) [1]) [nM]	Kd (canine PD-1 (canine) [2]) [nM]	IC50 (canine PD-1 (canine) [3]) [nM]	IC50 (canine PD-1 (canine) [4]) [nM]	Kd (canine PD-1 (canine) [5]) [nM]	Binder
2.51	2.51	5	5		NAN15 (4B2) (VHH) VHH: QVQLQASGGGLVQPGEHLLLSCAASGFAFGIYTMGWYRQAPGKEREKVASISRTSDSWNYADSVKGRFTISRENAKNTLYLQMNSLKPEDTALYFCAKSRSAWNTDDIEYWGQGTQVG
				> 10	NAN13/14 (VHH) VHH: QVQLQASGGGLAQPGGSLRLSCAASGFTFSSYAMSWARQAPGKGLEWVSGIYSDGSGSYYADSVKGRFTISRDNAKNTLYLQMNSLKPEDTALYYCAKGSWSRGIKETDYWGQGTQVG
				> 10	NAN27 (VHH) VHH: QPQAFGGGLVQPGGSLRLSCVASGSTDSIYAMGWYRQAPGKQRELVATITSADSTNYADSVKGRFTISRDNAKNTVVLQMNSLKPEDTAVYYCNAGSLAGYDYWGQGTQVG
				> 10	NAN20 (VHH) VHH: QVQLVQSGGEVKKPGASVKVSCKASGYTFTNYGITWARQAPGKGLEWVGGIYSDGSEPYYADSMKGRFTISRDNVKSTLYLQMNDLKPEDTALYFCAKGRGDFLKSAWRENRRYDSWGQGTQVG
				> 10	NAN22 (VHH) VHH: QVQLQASGGGLVQPGGSLRLSCAASGSIFGLYAMGWYRQAPGKQRDLVAAIASGGSTNYADSVKGRFTISRDNAKNTVYLQMNSLKPEDTADYYCNVAGDVTAQNRCKHLEVWGQGTQVG
